Reference: the RNAGym collection of RNA variant scans (doi:10.1073/pnas.2313332121)

B1: TPR t1 (parent)
chain: GACCAAUCUGCCCUCAGAGCUCGAGAACAUCUUCGGAUGCAGAGGAGGCAGGCUUCGGUGGCGCGAUAGCGCCAACGUCCUCAACCUCCAAUGCAUCCCACCACAUGAUGAUGCCUGAAGAGCCUUGGUUUUUUG

Variants of: B1
Test: polymerase ribozyme fitness, log enrichment relative to wild type (log ratio); higher = more active; in vitro selection for triplet polymerase activity
Procedure, shortened: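 Input and output libraries were sequenced on Illumina after a single in vitro selection round, run in triplicate on PCR-built, transcribed mutant libraries of each subunit of a heterodimeric triplet polymerase ribozyme. Selection annealed libraries to a biotinylated primer, the partner subunit and triplets, incubated them frozen at −7 °C, then gel-excised extended constructs for streptavidin-bead capture and RT-PCR. Genotypes with ≥10 input reads and ≥1 read per output were kept. Fitness is the logarithm, taken in base 2, of genotype enrichment divided by wild-type enrichment, using inverse-variance-weighted replicate averages.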

Variant | polymerase ribozyme fitness (log ratio)
GAUCAACCUGCCCUCAGCGCUCGAGAACAUCUUCGGAUGCAGAGGAGGCAGACUUCGGUGGCGCGAUAGCGCCAACGUCCUCAACCUCCAAUGAAUCCCACCACAUGAUGAUGCCUGAAGAGCCUUGGUUUUUUG [C3U U7C A18C G52A C94A] | -5.04
GAUCAAGCUGCCCUCAGAGCUCGAGAACAUCUUCGGAUGCAGAGGAGGCAGGCUUCGGUGGCGCGAUAGCGCCAACGUCCUCAUCCUCCAAUGCAUCCCAUCACAUGAUUAUGCCUGAAGAGCCAUGGUUUUUUG [C3U U7G A84U C101U G110U U125A] | -3.16
GACAAAUCUGCCCUCAGAGCUCGAGAACAUCUUCGGAUGCAGAGGAGGCAGGCUUCGGUGGCGCGAUAGCGCCAACGUCCUCAACCUCCAAUGCUUCCCACCACAUGAUGAUGCCUGAAGAGCCUUGGUUUUUUG [C4A A95U] | -1.38
GAUCAAUCUGCCCCCAGAGCUCGAGAACAUCUUCGGAUGCAGAGGAGGCAGGCUUCGGUGGUGCGAUAGCGCCAACGUCCUCAACCUCCAAUGCAUCCCACCACAUGAUGAUGCCUGGAGAGCCUUGGCUUUUUG [C3U U14C C62U A118G U129C] | -2.13
GAUCAAUCUGCCCUCAGAGCUCGAGAACAUCUUCGGAUGCAGAGGAGGCAGGCUUCGGUGGCGCGAUAGCGCCAACGUCCGCAACCUCCAAUGCAUCCCACCACAUGAUGAUGCCUGAAGAGCCUUGGUUUUUUG [C3U U81G] | -4.04
GAUCAAUCUGCCCUCAGAGCUCGAGAACAUCUUCGGAUGCAGAGGAGCCAGGCUUCGGUGUCGCGAUAGCGCCAACGUCCUCAACCUCCAAUGCAUCCCACCACAUGAUGAUGCCUGAAGAGCCUUGGUUUUUUG [C3U G48C G61U] | -0.989
GAUCAAUCUGCCCUCAGAGCUCGAGAACAUCUUCGGAUGCAGAGGAGGCAGGCUUCGGUGGCGCGAUAGCGCCAACGUCCUCAACCUCCAAUGCAUCCCACCACAUGAUGAUGCCUGAAAAGCCUUGGUUUUUUG [C3U G120A] | 0.234
GAUCAAUCUGCCCUCAGAGCUCGAGAACAUCUUCGGAUGCAGAGGAGGCAGGCUUCGGUGGCGCGAUAGCGCCAACGUCCUCAACCUCCAAUGCAUCCCACCACAAGAUGAUGCCUGAAGAGCCUUGGUUUUUUG [C3U U106A] | -0.258
GACAAAUCUGCCCUCAGAGCUCGAGAACAUCUUCGGAUGCAGAGGAGGCGGGCUUCGGUGGCGCGAUAGUGCCGACGUCCUCACCCUCCAAUGCAUCCCACCACAUGAUGAUGCAUGAAGAGCCUUGGUUUUUUG [C4A A50G C70U A74G A84C C115A] | -5.12
GACAAAUAUGCCCUCAGAGCUCGAGAACAUCUUCGGUUGCAGAGGAGGCAGGCUUAGGUGGCGCGAUAGCGCCAACGUCCUCAACCUCCAAUGCAUCCCACCACAUGAUGAUGCCUGAAGAGCCUUGGUUUUUUG [C4A C8A A37U C56A] | -1.7
GAUCAAUCUGCCCUCAGAGCUCGAGAACAUCUUCGGAUGCAGAGGAGACAGGCUUCGGUGGCGCGAUGGCGCCAACGUCCUCAACCUCCAAUGCAUCCCACCACAUGAUGAUGCCUGAAGAGCCUUGGUUUUUUG [C3U G48A A68G] | -3.84
GACAAAUCUGCCCUCAGAGCUCGAGAACAUCUUCGGAUGCAGAGGAGGCAGGCUUCGGUGGCGCGAUAGCGCCAACGUCCUCAACCUCCAAUGCAUCCCACCACAUGAUGAUGCCUGAAGAGCCUUGGUUUUUUG [C4A] | -1.19
GAUCAAUCUGCCCUCAGAGCUCGAGAACAUCUUCGGAUGCAGAGGAGGCAGGCUUCGGUGGCGCGAUAGCGCCAACGUCCUCAACCUCCAAUGCAUCCCACCACAUGAUUAUGCCUGAAGAGCCUUGGUUUUUUG [C3U G110U] | -1.54
GAUCAAUCUGCCCUCAGAGCUCGAGAACAUCUUCGGAUGCAGAGGAGGCACGCUUCGAUGGCUCGAUAGCGCCAACGUCCUCAACCUCCAAUGCAUCCCACCACAUGAUGAUGCGUGAAGAGCCUUGGUUUUUUG [C3U G51C G58A G63U C115G] | -5.47
GAUCAAUCUGCCCUCAGAGCUCGAGAACAUCUUCGGAUGCAGAGGAGGCAGGCUUCGGUGGCGCGAUACCGCCAACGUCCUCAACCUGCAAUGCAGCCCACCACAUGAUGAUGCCUGAAGAGCCUUGGUUUUUUG [C3U G69C C88G U96G] | -2.75
GACAAAUCUGCCCUCAGAGCUCGAGAACAUCUUCGGAUGCAGAGGAGGCAGGCUUCGGUGGCGCGAUAGCGCCCACGUCCUCAACCUCCAAUGCAUCCCACCACAUGAUGAUGCCUGAAGAGGCUUGGUUUUGUG [C4A A74C C123G U133G] | 0.795
GAUCAACCUGCCCUCAGAGCUCGAGAACAUCUUCGGAUGCAGAGGAGGCAGGCUUCGGUGGCGCGAUAGCGCCAACGUCCUCAACAUCCAAUGCAUCCCACCACAUGAUGAUGCCUGAAGGGCCUUGGUUUUUUG [C3U U7C C86A A121G] | 2.02
GACAAAUCUGCCUUCAGAGCUCGAGUACAUCUUCGGAUGCAGAUGAGGAAGGCUUCGGUGGCGCGAUAGCGCCAACGUCCUCAACCUCCAAUGCAUCCCACCAUAUGAUGAUGCCUGAAGAGCCUUGGUUUUUUG [C4A C13U A26U G44U C49A C104U] | -6.34
GAUCAAUCUGCCCUCAGAGCUCGAGAACAUCUUCGGAUGCAGAGGAGGCAGGCUUCGGUGGCGCGAUAGCGCCAACGCCCUCAACCUCCAAUGCAUCCCACCACUUGAUGAUGCCUGAACAGCCUUGGUUUUUUG [C3U U78C A105U G120C] | -1.99
GAUCAAUCUGCCCUCAGAGCUCGAGAACAUCUUCGGAUGCAGAGGAGGCAGGCCUCGGUGGCGCGAUAGCGCCAACGUCCUCAACCUCCAAUGCAUCCCACCAAAUGAUGAUGCCUGAAGAGCCUUGGUUCUUUG [C3U U54C C104A U131C] | -2.52
GAUCAAUCUGCCCUCAGAGCUCGAGAACAUCUUCGGAUGCAGAGGAGGCAGGCUUCGGUGGCACGAUAGCGCCAACGUCCUCAACCUCCAAUGCAUCCCACCACAUGAUGAUGCCUGAAGAGCCUUGGUUUUUUG [C3U G63A] | -1.72

Variant | polymerase ribozyme fitness (log ratio)
GAUCAAUCUGCCCUCAGAGCUCGAGAACAUCUUCGGAUGCAGAGGAGGCAGGCUUCGGUGGCGCGAUAGCUCCAACGUCCUCAACCUCCAAUGCAUCCCACCACAUGAUGAUGCCUGAAGAGCCGUGGUUUUUUG [C3U G71U U125G] | -1.58
GAUCAAUCUGCCCUCAGAGCUCGAGAACAUCUUCGGAUGCAGAGGAGGCAGGCUUCGGUGACGCGAUAGCGCCAACGGCCUCAACCUCCAAUGCAUCCCACCACAUGAUGAGGCCUGAAGAGCCUUGGUUUUUUG [C3U G61A U78G U112G] | -0.547
GAUCAAUCUGCCCUCAGAGCUCGAGAACAUCUUCGGAUGCAGAGGAGGCAGGCUUCGGUGGCGCGAUAGCUCCAACGUCCUCAACCUCCAAUGCAUCCCACCACAUGAUGAUGCCUGAAGAGCCUUGGUUUUUUG [C3U G71U] | -0.48
GACAAAUCUGCCCUCAGAGCUCGAGAACAUCUUCGGAUGCAGAGGAGGCAGGGUUCGGUGGCGCGAUAGCGCCAACAUCAUCAACCUCCAAUGCAUCCCACCACAUGAUGAUGCCUGAAGAGCCUUGGUUUUUUG [C4A C53G G77A C80A] | -5.1
GAUCAAUCUGCCCUCAGAGCUCGAGAACAUCUUCGGAUGCAGAGGAGGCAGGCUUCGGUGGCGCGAUAGCGCCAACGUCCUCAACCUCCAAUGCAUCCCACCACAUGAUGAUGCCUAAAUAGCCUUGGUUUUUUG [C3U G117A G120U] | -2.21
GAUCAAUCUGCCCUCAGAGCUCGAGAACAUCUUCGGAUGCAGAGGAGGCAGGCUUCGGUGGCGCGAUAGCGCCAACGUCCUCAACCGCCAAUGCAUCCCACCACAUGAUGAUGCCUGAAGAGCCUUGGUUUUUUG [C3U U87G] | -0.293
GAUCAAUCUGCCCUCAGAGCUCGAGAACAUCUUCGGAUGCAGAGGAGGCAGGCUCCGGUGGCGCGAUAGCGCCAACGUCCUCAACCUCCAAUGCAUCCCACCACAUGAUGAUGCCUGAACAGCCUUGGUUUUUUG [C3U U55C G120C] | -1.02
GACAAAUCUGCCCUCAGAGCUCGAGAACAUCUUCGGAUGUACAGGAGGCAGUCUUCGGUAGCGCGAUAGCGCCAACGUCCUCAACCUCCAAUGCAUCCCACCACAUGAUGAUGCCUGAUGAGCCUUGGAUUUUUG [C4A C40U G42C G52U G60A A119U U129A] | -5.41
GACAGAUCUGCCCUCAGAGCUCGAGAACAUCUUCGGAUGCAGAGGAGGCAGGCUUCGGUGGCGCGAUAGCGCCAACGUCCUCAACCUCCAAUGCAUCCCACCACAUGAUGAUGCCUGAAGAGCCUUGGUUUUUUG [C4A A5G] | -1.02
GAUCAAUCUGCCCUCAGAGCUCGAGAACAUCUUCGGAUGCAGAGGAGGCAGGCUUCGGUGUCGCGAUAGCGCCAACGGCCUCAACCUCCAAGGCAUCCCACCACAUGAUGAUGCCUGAAAAGCCUUUGUUUUUUG [C3U G61U U78G U92G G120A G127U] | -2.24
GAUCAAUCUGCCCUCAGAGCUCGAGAACAUCUUCGGAUGCAGAGGAGGCAGGCUUCGGUGGCGCGAUAUCGCCAACGUCCUCAACCUCCAAUGCAUCCCACCACGUGAUGAUGCCUCAAGAGCCUUGGUUUUUUG [C3U G69U A105G G117C] | -4.98
GAUCAAUCCGCCCUCAGAGCUCGAGAACAUCUUCGGAUGCAGAGGAGGAAGGCUUCGGUGGCGCGAUAGUGCCAAAGUCCUCAACCUCCAAUGCAUCCCACCACAUGAUGAUGCAUGAAGAGCCUUGGUUUUUUG [C3U U9C C49A C70U C76A C115A] | -0.878
GAUCAAUCUGCCCUCAGAGCUCGAGAACAUCUUCGGAUGCAGAGGAGGCAGACUUCGGUGGUGCGAUAGCGCCAACGUCCUCAACCUCCAAUGCAUCCCACCACAUGAUGAUGCCUGAAGUGCCUUGGUUUUUUG [C3U G52A C62U A121U] | 1.52
GAUCAAUCUGCCCACAGAGCUCGAGAACAUCUUCGGAUGCAGAGGAGGCAGGGUUCGGUGGCGUGAUAGCGCCAACGUCCUCAACCUCCAAUGCAUCCCACCACAUGAUGAUGCCUGAAAAGCCUUGGUUUUUUG [C3U U14A C53G C64U G120A] | 0.544
GAUCAAUCUGCCCUCAGAGCUCGAGAACAUCCUCGGAUGCAGAGGAGGCAGGCUUCGGUGGCGCGAUAGCGCCAACGUCCUCAACCUCCAAUGCAUCCCAUCACAUGAUGAUGCCUGAACAGCCUUGGUUUUUUG [C3U U32C C101U G120C] | -0.584
GAUCAAUCUGCCCUCAGAGCUCGAGAACAUCUUCGGAUGCAGAGGAGGCAGGCUUCGGUGACGCGAUAGCGCCAACGUCCUCAACCUCCAUUGCAUCCCACCACAUGAUGAUGCCUGAAGAGCCUUGGUUUUUUG [C3U G61A A91U] | -1.66
GAUCAAUCUGCCCUCAGAGCUCGAGAACAUCUUCGGAUGCAGAGGAUGCAGGCUUCGGUGGCGCGAUAGCGCCAACGUCCUCAACCUCCAAUGCAUCCCACCACGUGAUGAUGCCUGAAGAGCCUUGGUUUUUUG [C3U G47U A105G] | -4.56
GACAAAUCUGCCCUCAGAGCUCGAGAACAUCUUCGGAUGCAGAGGAGGCAGGCUUCGGUGGAGCGAUAGCGCCAACGUCCUCAACCUCCAAAGCAUCCCACCACAUGAUGAUGCCUGAAGAGCCUUGGAUUUUUG [C4A C62A U92A U129A] | -5.8
GAUCAAUCAGCCCUCAGAGCUCGAGAACAUCUUCGGAUGCAGAGGAGGCAGGCUUCGGUGGCGCGAUAGCGCCAACGUCCUCAACCUCCAAUGCAUCCCACCACAUGAUGAUGCCUGAAGAGCCUUGGUUUUUUG [C3U U9A] | 0.706
GACAAAUCUGGCCUCAGAGCUCGAGAACAUCUUCGGAUGCAGAGGAGGCAGGCUUCGGUGGCGCGAUAGCGCCAACGUCCUCAACCUCCAAUGCAUCCCACCACAUGAUGAUGCCUGAAGAGCCUUGGUUUUUUG [C4A C11G] | -1.18
GACAAAUCUGGCCUCAGAGCUCGAGAACAUCUUCGGAUGCAGACGAGGCAGGCCUCGGUGGCGCGAUAGCGCCAACGUCCUCAACCUCCAAUGCAUCCCACCACAUGAUGAUGCCUGAAGAGCCUUGGUUUUUUG [C4A C11G G44C U54C] | -1.66
